Tests used:
[1] = biological target: SpyTag-EGFP-SdyTag (Streptococcus pyogenes | Streptococcus dysgalactiae); assay: covalent ligation read by SDS-PAGE and densitometry; step-wise reaction of dual-Tag constructs with SpyCatcher, 5 and 30 minutes; at 5 minutes aliquots given additional SpyCatcher or SdyCatcher DANG short for a further 25 minutes
[2] = biological target: SdyTag-EGFP (Streptococcus dysgalactiae); assay: kinetics of covalent ligation by SDS-PAGE and densitometry; equimolar Catcher and Tag-EGFP (10 uM for SpyTag-EGFP; 50 uM for SdyTag-EGFP by S3 and S4 Figs), 100 uM sodium phosphate buffer pH 7, 25°C; second order rate constants from Catcher depletion; triplicates
[3] = biological target: SpyTag-EGFP (Streptococcus pyogenes); assay: as above
[4] = biological target: SdyTag-EGFP (Streptococcus dysgalactiae); assay: covalent ligation read by SDS-PAGE and densitometry; 50 uM Catcher with 65 uM SdyTag-EGFP (1.3 equivalents), 100 uM sodium phosphate buffer pH 7, 25°C, 40 minutes; quenched with SDS-PAGE loading buffer and boiled; yield with respect to the limiting Catcher; triplicates

For SpyCatcher (domain or fragment), the percent of products ligated twice [1] was < 10%, the second order rate constant of covalent ligation [2] was 1 M⁻¹ s⁻¹ and the second order rate constant of covalent ligation [3] was 322 M⁻¹ s⁻¹. It also gave a yield of ligated product after 40 minutes [4] of 7%.
